According to patent US8524227B2, “Anti-IL-TIF antibodies” (ZymoGenetics, Inc., priority 2002, dated 2013):

Assays:
[1] = molecular target: T1, IL-TIF (Homo sapiens, UniProt Q9GZX6); experiment: Inhibition of IL-TIF-induced proliferation of BaF3/CRF2-4/zcytor11 cells by soluble receptors; assay type: cell-based; conditions: 100 pg/ml IL-TIF
T1 sequence (Q9GZX6 13-179 limits assumed): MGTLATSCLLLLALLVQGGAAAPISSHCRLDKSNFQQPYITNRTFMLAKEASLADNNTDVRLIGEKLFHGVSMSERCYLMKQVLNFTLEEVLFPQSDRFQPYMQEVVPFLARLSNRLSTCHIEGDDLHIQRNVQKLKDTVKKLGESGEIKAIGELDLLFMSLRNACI
Procedure: BaF3/CRF2-4/zcytor11 cells described herein were spun down and washed in PBS 2 times to ensure the removal of the mIL-3, and then spun a third time and re-suspended in the complete media (RPMI 1640, 10% FBS, 1% GlutaMAX, 1% Sodium Pyruvate), but without mIL-3 (hereinafter referred to as “mIL-3 free media”). Cells were then counted in a hemocytometer. Cells were plated in a 96-well format at 5000 cells per well in a volume of 100 μl per well using the mIL-3 free media.
IL-TIF protein (SEQ ID NO:3) was diluted to 200 pg/ml in mIL-3 free media. Zcytor16-Fc4 fusion protein (described herein) was diluted to 1 μg/ml in the mIL-3 free/IL-TIF media on the top row of the plate, and then diluted serially 1:2 down the remaining 7 rows on the 96-well plate, leaving a volume of 100 μl in each well. This was then added to the 100 μl of cells, for a final IL-TIF concentration of 100 pg/ml in all wells, and final Zcytor16-Fc4 concentrations of approximately […], 0.016, and 0.008 μg/ml in a total assay volume of 200 μl. CRF2-4/zcytor11-Fc4 was diluted to 8 μg/ml in the mIL-3 free/IL-TIF media on the top row of the plate, and then diluted serially 1:2 down the remaining 7 rows on the 96-well plate, leaving a volume of 100 μl in each well. This was then added to the 100 μl of cells, for a final IL-TIF concentration of 100 pg/ml in all wells, and final CRF2-4/zcytor11-Fc4 concentrations of approximately […], 0.25, 0.125 and 0.063 μg/ml, in a total assay volume of 200 The assay plates were incubated at 37° C., 5% CO2 for 4 days at which time Alamar Blue (Accumed, Chicago, Ill.) was added at […]. Plates were again incubated at 37° C., 5% CO2 for 16 hours. Alamar Blue gives a fluourometric readout based on number of live cells, and is thus a direct measurement of cell proliferation in comparison to a negative control. Plates were read on the Wallac Victor 2 1420 Multilabel Counter (Wallac, Turku, Finland) at wavelengths 530 (Excitation) and 590 (Emmssion). […] IL-TIF alone stimulated the cells 13-fold over background.

[2] = molecular target: T1, IL-TIF; experiment: SAA induction by IL-TIF in mice, inhibition by zcytor16-Fc4; assay type: in vivo; conditions: 3 μg IL-TIF IP with 20-100 ug zcytor16-Fc4 IP 15 minutes before
Procedure: To assess whether zcytor16 could inhibit the SAA induction by IL-TIF mice (female, C3H/HEJ, 8 weeks old; Jackson Labs, Bar Harbor, Me.) were divided into five groups of three animals each and treated by IP injection of proteins as shown in Table 15 below:
The zcytor16 injections preceded the IL-TIF injection by 15 minutes. Both protein injections were given by the intraperitoneal route. A blood sample was taken from each mouse prior to treatment, then at 2 and 6 hours after treatment. Serum was prepared from each of the samples for measurement of SAA and IL-TIF.
An ELISA was performed as described previously to determine the level of SAA in mice treated with IL-TIF and a soluble receptor for IL-TIF, zcytor16-Fc4 described herein.

B1: zcytor16-Fc4: soluble receptor for IL-TIF, zcytor16 fused to Fc4; IL-TIF antagonist (protein)
chain: TQSTHESLKPQRVQFQSRNFHNILQWQPGRALTGNSSVYFVQYKIYGQRQWKNKEDCWGTQELSCDLTSETSDIQEPYYGRVRAASAGSYSEWSMTPRFTPWWETKIDPPVMNITQVNGSLLVILHAPNLPYRYQKEKNVSIEDYYELLYRVFIINNSLEKEQKVYEGAHRAVEIEALTPHSSYCVVAEIYQPMLDRRSQRSEERCVEIPEPRSSDKTHTCPPCPAPEAEGAPSVFLFPPKPKDTLMISRTPEVTCVVVDVSHEDPEVKFNWYVDGVEVHNAKTKPREEQYNSTYRVVSVLTVLHQDWLNGKEYKCKVSNKALPSSIEKTISKAKGQPREPQVYTLPPSRDELTKNQVSLTCLVKGFYPSDIAVEWESNGQPENNYKTTPPVLDSDGSFFLYSKLTVDKSRWQQGNVFSCSVMHEALHNHYTQKSLSLSPGK
- concentrations completely inhibiting proliferation [1]: 0.025 to 1 µg/mL
- concentrations partially inhibiting proliferation, lower end [1]: ≥ 8 ng/mL
- inhibition of the proliferative effect of IL-TIF [1]: strong dose-dependant inhibition
- level of SAA [2]: reduction in the level of SAA induced by IL-TIF alone to background levels
